From patent publication US10450368

Assays:
[1] = biological target: CH505.M9D8gp120/293F; assay: direct-binding ELISA
[2] = biological target: CH505.M10D8gp120; assay: direct-binding ELISA
[3] = biological target: CH505.M21D8gp120/293F; assay: direct-binding ELISA
[4] = biological target: CH505.TF mutant gp120 M20 (HIV-1); assay: direct-binding ELISA
[5] = biological target: CH505.M5D8gp120293F; assay: direct-binding ELISA
[6] = biological target: CH505.M19D8gp120; assay: direct-binding ELISA
[7] = biological target: CH505.M11D8gp120/293F; assay: direct-binding ELISA
[8] = biological target: CH505.TF mutant gp120 M6 (HIV-1); assay: direct-binding ELISA
[9] = biological target: CH505.TF mutant gp120 M8 (HIV-1); assay: direct-binding ELISA
[10] = biological target: CH505.M7D8gp120/293F; assay: direct-binding ELISA
[11] = biological target: HIV-1 CH505 transmitted/founder gp120 Env (HIV-1); assay: SPR, antibody captured on anti-human Ig Fc, gp120 injected
[12] = biological target: CH505w020.14D8gp120; assay: ELISA
[13] = biological target: CH0505_CON D7gp120/293i; assay: ELISA
[14] = biological target: CH505.w30.12D8gp120; assay: ELISA
[15] = biological target: CH505w136.B18D8gp120; assay: ELISA
[16] = biological target: CH505w030.20D8gp120/293F; assay: ELISA
[17] = biological target: Centromere B (UniProt P07199); assay: AtheNA, Ab 6.25 ug/ml
[18] = biological target: Jo-1 (UniProt P12081); assay: AtheNA, Ab 6.25 ug/ml
[19] = biological target: SSA; assay: AtheNA, Ab 6.25 ug/ml
[20] = biological target: RNP (ribonucleoprotein); assay: AtheNA, Ab 6.25 ug/ml
[21] = biological target: SSB (UniProt P05455); assay: AtheNA, Ab 6.25 ug/ml
[22] = biological target: Sm (Smith antigen); assay: AtheNA, Ab 6.25 ug/ml
[23] = biological target: Histones; assay: AtheNA, Ab 6.25 ug/ml
[24] = biological target: Scl-70 (UniProt P11387); assay: AtheNA, Ab 6.25 ug/ml
[25] = biological target: Centromere B (UniProt P07199); assay: AtheNA, Ab 12.5 ug/ml
[26] = biological target: Jo-1 (UniProt P12081); assay: AtheNA, Ab 12.5 ug/ml
[27] = biological target: SSA; assay: AtheNA, Ab 12.5 ug/ml
[28] = biological target: RNP (ribonucleoprotein); assay: AtheNA, Ab 12.5 ug/ml
[29] = biological target: SSB (UniProt P05455); assay: AtheNA, Ab 12.5 ug/ml
[30] = biological target: Sm (Smith antigen); assay: AtheNA, Ab 12.5 ug/ml
[31] = biological target: Histones; assay: AtheNA, Ab 12.5 ug/ml
[32] = biological target: Scl-70 (UniProt P11387); assay: AtheNA, Ab 12.5 ug/ml
[33] = biological target: Centromere B (UniProt P07199); assay: AtheNA, Ab 25 ug/ml
[34] = biological target: Jo-1 (UniProt P12081); assay: AtheNA, Ab 25 ug/ml
[35] = biological target: SSA; assay: AtheNA, Ab 25 ug/ml
[36] = biological target: RNP (ribonucleoprotein); assay: AtheNA, Ab 25 ug/ml
[37] = biological target: SSB (UniProt P05455); assay: AtheNA, Ab 25 ug/ml
[38] = biological target: Sm (Smith antigen); assay: AtheNA, Ab 25 ug/ml
[39] = biological target: Histones; assay: AtheNA, Ab 25 ug/ml
[40] = biological target: Scl-70 (UniProt P11387); assay: AtheNA, Ab 25 ug/ml
[41] = biological target: CH505.M9D8gp120/293F; assay: ELISA
[42] = biological target: CH505.M10D8gp120; assay: ELISA
[43] = biological target: CH505.M21D8gp120/293F; assay: ELISA
[44] = biological target: CH505.TF mutant gp120 M20 (HIV-1); assay: ELISA
[45] = biological target: CH505.M5D8gp120293F; assay: ELISA
[46] = biological target: CH505.M19D8gp120; assay: ELISA
[47] = biological target: CH505.M11D8gp120/293F; assay: ELISA
[48] = biological target: CH505.TF mutant gp120 M6 (HIV-1); assay: ELISA
[49] = biological target: CH505.TF mutant gp120 M8 (HIV-1); assay: ELISA
[50] = biological target: CH505.M7D8gp120/293F; assay: ELISA

Sequence of Scl-70 (P11387 whole entry): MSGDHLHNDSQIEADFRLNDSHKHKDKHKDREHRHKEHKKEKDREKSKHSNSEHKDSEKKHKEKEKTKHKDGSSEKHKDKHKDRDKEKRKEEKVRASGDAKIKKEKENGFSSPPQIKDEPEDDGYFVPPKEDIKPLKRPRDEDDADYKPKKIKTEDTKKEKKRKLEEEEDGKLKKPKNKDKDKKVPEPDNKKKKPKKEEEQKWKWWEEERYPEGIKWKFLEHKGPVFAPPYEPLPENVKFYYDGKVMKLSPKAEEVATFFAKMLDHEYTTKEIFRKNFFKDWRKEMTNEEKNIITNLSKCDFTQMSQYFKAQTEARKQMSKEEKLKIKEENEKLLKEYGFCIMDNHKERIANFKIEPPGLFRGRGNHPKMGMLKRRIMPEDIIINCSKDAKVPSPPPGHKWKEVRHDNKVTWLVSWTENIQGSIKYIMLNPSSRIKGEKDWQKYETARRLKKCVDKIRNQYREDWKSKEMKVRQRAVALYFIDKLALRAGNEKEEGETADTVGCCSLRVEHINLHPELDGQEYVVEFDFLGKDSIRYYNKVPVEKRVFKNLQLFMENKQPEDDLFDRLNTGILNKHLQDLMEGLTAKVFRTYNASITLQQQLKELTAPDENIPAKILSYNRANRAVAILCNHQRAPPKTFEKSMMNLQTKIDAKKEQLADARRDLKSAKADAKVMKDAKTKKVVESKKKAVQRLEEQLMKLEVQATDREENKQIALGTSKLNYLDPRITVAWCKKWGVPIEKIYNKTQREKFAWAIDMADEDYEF
Sequence of Jo-1 (P12081 whole entry): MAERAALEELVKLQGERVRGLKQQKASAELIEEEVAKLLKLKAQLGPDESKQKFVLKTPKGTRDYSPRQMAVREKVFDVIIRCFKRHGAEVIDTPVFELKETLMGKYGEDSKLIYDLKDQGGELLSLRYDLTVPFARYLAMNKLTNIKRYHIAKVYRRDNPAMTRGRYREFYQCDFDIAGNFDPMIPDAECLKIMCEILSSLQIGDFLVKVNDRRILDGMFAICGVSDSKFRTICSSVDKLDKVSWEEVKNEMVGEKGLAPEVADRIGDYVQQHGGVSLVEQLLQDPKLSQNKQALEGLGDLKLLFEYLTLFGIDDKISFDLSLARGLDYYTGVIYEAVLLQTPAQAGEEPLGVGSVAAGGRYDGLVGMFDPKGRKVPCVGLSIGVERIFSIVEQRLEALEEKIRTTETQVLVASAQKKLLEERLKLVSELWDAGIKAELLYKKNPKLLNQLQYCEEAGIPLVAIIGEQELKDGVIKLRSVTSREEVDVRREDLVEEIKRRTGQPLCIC
Sequence of SSB (P05455 whole entry): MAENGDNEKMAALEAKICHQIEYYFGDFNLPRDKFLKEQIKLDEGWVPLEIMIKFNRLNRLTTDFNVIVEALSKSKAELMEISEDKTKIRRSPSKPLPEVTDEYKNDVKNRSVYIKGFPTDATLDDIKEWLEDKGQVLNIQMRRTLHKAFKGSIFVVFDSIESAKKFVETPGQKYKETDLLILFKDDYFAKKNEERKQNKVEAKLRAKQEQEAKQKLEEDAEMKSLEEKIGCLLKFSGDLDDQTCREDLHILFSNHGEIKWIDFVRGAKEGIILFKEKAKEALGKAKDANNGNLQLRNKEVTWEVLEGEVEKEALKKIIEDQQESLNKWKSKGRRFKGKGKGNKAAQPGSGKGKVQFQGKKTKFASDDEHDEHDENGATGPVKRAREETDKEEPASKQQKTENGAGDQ
Sequence of Centromere B (P07199 whole entry): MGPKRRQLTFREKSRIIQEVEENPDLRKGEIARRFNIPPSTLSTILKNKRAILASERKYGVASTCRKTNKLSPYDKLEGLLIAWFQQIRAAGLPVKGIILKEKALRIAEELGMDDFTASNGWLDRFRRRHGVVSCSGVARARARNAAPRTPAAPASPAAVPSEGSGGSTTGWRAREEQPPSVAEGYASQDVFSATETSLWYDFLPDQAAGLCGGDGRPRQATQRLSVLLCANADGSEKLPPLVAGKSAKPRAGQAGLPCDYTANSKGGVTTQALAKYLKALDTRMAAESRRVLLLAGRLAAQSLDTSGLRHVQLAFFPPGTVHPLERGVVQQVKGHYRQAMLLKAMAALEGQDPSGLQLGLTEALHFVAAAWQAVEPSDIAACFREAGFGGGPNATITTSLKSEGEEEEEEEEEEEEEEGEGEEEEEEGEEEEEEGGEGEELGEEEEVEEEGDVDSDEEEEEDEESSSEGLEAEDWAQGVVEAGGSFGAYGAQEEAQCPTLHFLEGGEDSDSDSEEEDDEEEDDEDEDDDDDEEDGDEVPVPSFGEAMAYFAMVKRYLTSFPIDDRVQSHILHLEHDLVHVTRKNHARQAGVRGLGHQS

CH103 (antibody)
LogAUC [1]: 11.6 | LogAUC [2]: 13.2 | LogAUC [3]: 11.4 | LogAUC [4]: 12.2 | LogAUC [5]: 9.84 | LogAUC [6]: 13.3 | LogAUC [7]: 13.4 | LogAUC [8]: 13.1 | LogAUC [9]: 11.5 | LogAUC [10]: 11.1

CH103 UCA (antibody)
Kd [11]: 0.227 µM | kon [11]: 37000 M⁻¹ s⁻¹ | LogAUC [1]: 0.12 | LogAUC [2]: 1.35 | LogAUC [3]: 0 | LogAUC [4]: 0 | LogAUC [5]: 0 | LogAUC [6]: 1.74 | LogAUC [7]: 2.62 | LogAUC [8]: 5.23 | LogAUC [9]: 0 | LogAUC [10]: 0.44 | LogAUC [12]: 0.33 | LogAUC [13]: 4.3 | LogAUC [14]: 0 | LogAUC [15]: 0 | LogAUC [16]: 0

CH104 (antibody)
LogAUC [1]: 10.8 | LogAUC [2]: 11.7 | LogAUC [3]: 11.2 | LogAUC [4]: 10.8 | LogAUC [5]: 9.02 | LogAUC [6]: 11.3 | LogAUC [7]: 12 | LogAUC [8]: 11.6 | LogAUC [9]: 10.1 | LogAUC [10]: 9.73

CH235 IA3 (antibody)
AtheNA signal (relative luminescence units) [17]: 9 | AtheNA signal (relative luminescence units) [18]: 2 | AtheNA signal (relative luminescence units) [19]: 12 | AtheNA signal (relative luminescence units) [20]: 4 | AtheNA signal (relative luminescence units) [21]: 3 | AtheNA signal (relative luminescence units) [22]: 7 | AtheNA signal (relative luminescence units) [23]: 5 | AtheNA signal (relative luminescence units) [24]: 2 | AtheNA signal (relative luminescence units) [25]: 15 | AtheNA signal (relative luminescence units) [26]: 3 | AtheNA signal (relative luminescence units) [27]: 12 | AtheNA signal (relative luminescence units) [28]: 5 | AtheNA signal (relative luminescence units) [29]: 6 | AtheNA signal (relative luminescence units) [30]: 12 | AtheNA signal (relative luminescence units) [31]: 7 | AtheNA signal (relative luminescence units) [32]: 3 | AtheNA signal (relative luminescence units) [33]: 27 | AtheNA signal (relative luminescence units) [34]: 8 | AtheNA signal (relative luminescence units) [35]: 10 | AtheNA signal (relative luminescence units) [36]: 7 | AtheNA signal (relative luminescence units) [37]: 9 | AtheNA signal (relative luminescence units) [38]: 13 | AtheNA signal (relative luminescence units) [39]: 12 | AtheNA signal (relative luminescence units) [40]: 4 | LogAUC [41]: 0 | LogAUC [42]: 0.08 | LogAUC [12]: 2.72 | LogAUC [43]: 0 | LogAUC [13]: 5.09 | LogAUC [44]: 0 | LogAUC [45]: 7.01 | LogAUC [46]: 0.11 | LogAUC [14]: 0 | LogAUC [47]: 0 | LogAUC [48]: 2.96 | LogAUC [15]: 0 | LogAUC [49]: 0 | LogAUC [50]: 0 | LogAUC [16]: 1.16

CH235 IA4 (antibody)
AtheNA signal (relative luminescence units) [17]: 5 | AtheNA signal (relative luminescence units) [18]: 4 | AtheNA signal (relative luminescence units) [19]: 11 | AtheNA signal (relative luminescence units) [20]: 3 | AtheNA signal (relative luminescence units) [21]: 5 | AtheNA signal (relative luminescence units) [22]: 6 | AtheNA signal (relative luminescence units) [23]: 4 | AtheNA signal (relative luminescence units) [24]: 2 | Kd [11]: 30.6 µM | koff [11]: 0.0881 s⁻¹ | kon [11]: 2900 M⁻¹ s⁻¹ | AtheNA signal (relative luminescence units) [25]: 5 | AtheNA signal (relative luminescence units) [26]: 3 | AtheNA signal (relative luminescence units) [27]: 11 | AtheNA signal (relative luminescence units) [28]: 4 | AtheNA signal (relative luminescence units) [29]: 3 | AtheNA signal (relative luminescence units) [30]: 6 | AtheNA signal (relative luminescence units) [31]: 6 | AtheNA signal (relative luminescence units) [32]: 2 | AtheNA signal (relative luminescence units) [33]: 10 | AtheNA signal (relative luminescence units) [34]: 2 | AtheNA signal (relative luminescence units) [35]: 12 | AtheNA signal (relative luminescence units) [36]: 5 | AtheNA signal (relative luminescence units) [37]: 4 | AtheNA signal (relative luminescence units) [38]: 12 | AtheNA signal (relative luminescence units) [39]: 9 | AtheNA signal (relative luminescence units) [40]: 2 | LogAUC [41]: 0 | LogAUC [42]: 0.12 | LogAUC [12]: 0 | LogAUC [43]: 0 | LogAUC [13]: 0 | LogAUC [44]: 0 | LogAUC [45]: 1.36 | LogAUC [46]: 0 | LogAUC [14]: 0 | LogAUC [47]: 0 | LogAUC [48]: 0 | LogAUC [15]: 0 | LogAUC [49]: 0 | LogAUC [50]: 0 | LogAUC [16]: 0.24

CH235UA/293i (antibody)
AtheNA signal (relative luminescence units) [17]: 2 | AtheNA signal (relative luminescence units) [18]: 3 | AtheNA signal (relative luminescence units) [19]: 10 | AtheNA signal (relative luminescence units) [20]: 2 | AtheNA signal (relative luminescence units) [21]: 5 | AtheNA signal (relative luminescence units) [22]: 5 | AtheNA signal (relative luminescence units) [23]: 2 | AtheNA signal (relative luminescence units) [24]: 3 | AtheNA signal (relative luminescence units) [25]: 3 | AtheNA signal (relative luminescence units) [26]: 5 | AtheNA signal (relative luminescence units) [27]: 9 | AtheNA signal (relative luminescence units) [28]: 3 | AtheNA signal (relative luminescence units) [29]: 4 | AtheNA signal (relative luminescence units) [30]: 6 | AtheNA signal (relative luminescence units) [31]: 4 | AtheNA signal (relative luminescence units) [32]: 3 | AtheNA signal (relative luminescence units) [33]: 3 | AtheNA signal (relative luminescence units) [34]: 5 | AtheNA signal (relative luminescence units) [35]: 9 | AtheNA signal (relative luminescence units) [36]: 4 | AtheNA signal (relative luminescence units) [37]: 3 | AtheNA signal (relative luminescence units) [38]: 6 | AtheNA signal (relative luminescence units) [39]: 3 | AtheNA signal (relative luminescence units) [40]: 3
